We go through seven molecules from US7265267 (CROPDESIGN N V, dated 2007).

The target in experiment [1] is T1, GAL4 DNA binding domain alone (pGBT9) (UniProt P04386 1-147).
T1 construct: Negative control bait in the two-hybrid retransformation
Put plainly: yeast two-hybrid control, growth without histidine. From the text: (§1) The LDV159 clone was identical to ICK1 (GenBank accession number U94772 as published by Wang in Nature 386 (1997), 451–452). The two other clones were novel and encoded proteins only distantly related to ICK1 (Table 1). The LDV39 gene was 622 bp long, consisting of 423 bp coding region and 199 bp 3' UTR (excluding the poly-A tail). The LDV66 gene was 611 bp long, consisting of 379 bp coding region and 232 bp 3' UTR (excluding the poly-A tail). The specificity of the interaction between LDV39, LDV66, and LDV159 was verified by the retransformation of yeast with pGBTCDC2A and pGADLDV39/pGADLDV66/pGADLDV159. As controls, pGBTCDC2A was cotransformed with a vector containing only the GAL4 activation domain (pGAD424); and the pGADLDV39/pGADLDV66/pGADLDV159 vectors were cotransformed with a plasmid containing only the GAL4 DNA binding domain (pGBT9). Transformants were plated on medium with or without histidine. Only transformants containing both pGBTCDC2A and pGADLDV39, pGADLDV66, ot pGADLDV159 were able to grow in the absence of histidine.

Experiment [2] addresses GAL4 DNA-binding domain-CDC2bAt fusion (pGBTCDC2B) (Arabidopsis thaliana, UniProt P04386 1-147; P25859 1-309). Briefly: yeast two-hybrid, growth without histidine. As for the experimental part:
(§2) The pGBTCDC2B vector encoding a fusion protein between the C-terminus of the GAL4 DNA-binding domain and CDC2bAt was constructed by cloning the full length coding region of CDC2bAt into the pGBT9 vector. pGBTCDC2B was transformed with pGADLDV66/pGADLDV39/pGADLDV159 in the HF7c yeast and cotransformants were plated on medium with or without histidine. As control, pGBTCDC2A was transformed with pGADLDV66/pGADLDV39/pGADLDV159. In contrast to the transformants containing the pGBTCDC2A vector were cotransformants containing the pGBTCDC2B vector unable to grow in the absence of histidine.

Experiment [3] deals with T2, GAL4 DNA-binding domain-CDC2aAt fusion (pGBTCDC2A bait) (Arabidopsis thaliana, UniProt P04386 1-147; P24100 1-294).
T2 construct: Yeast two-hybrid bait; whole CDC2aAt coding region amplified from cDNA and cloned in the EcoRI site of pGBT9
Put plainly: yeast two-hybrid, growth without histidine. As for the experimental part:
as §2

The target in experiment [4] is T3, CDC2bAt protein in protein extract of A. thaliana Col-O cell suspension culture (Arabidopsis thaliana, UniProt P25859 1-309).
T3 construct: Endogenous protein in a crude extract
T3 sequence (looked up): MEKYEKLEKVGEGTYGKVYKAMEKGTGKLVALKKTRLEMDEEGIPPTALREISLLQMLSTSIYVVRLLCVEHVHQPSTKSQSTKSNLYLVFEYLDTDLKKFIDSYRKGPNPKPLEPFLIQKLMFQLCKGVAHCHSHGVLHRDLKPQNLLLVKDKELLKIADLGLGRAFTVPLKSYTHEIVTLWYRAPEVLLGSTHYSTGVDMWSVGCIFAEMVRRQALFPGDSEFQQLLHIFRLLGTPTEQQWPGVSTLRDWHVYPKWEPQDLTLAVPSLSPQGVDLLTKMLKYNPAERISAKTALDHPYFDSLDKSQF
Put plainly: pull-down from cell extract on FL66-Sepharose, Western blot. As for the experimental part: The *Arabidopsis thaliana* CKI FL66 Associates Exclusively with CDC2aAt In Vitro Purified recombinant FL66 protein (prepared as described as in previous Example 6 was coupled to CNBr-activated Sepharose 4B (Pharmacia) at a concentration of 5 mg/ml of gel according to the manufacturer's instructions. Protein extracts were prepared from a 2-day-old cell suspension culture of *A. thaliana* Col-O in homogenisation buffer (HB) containing 50 mM Tris-HCl (pH 7.2), 60 mM β-glycerophosphate, 15 mM nitrophenyl phosphate, 15 mM EGTA, 15 mM MgCl_2, 2 mM dithiothreitol, 0.1 mM vanadate, 50 mM NaF, 20 µg/ml leupeptin, 20 µg/ml aprotinin, 20 µg/ml soybean trypsin inhibitor (SBTI), 100 µM benzamidine, 1 mM phenylmethylsulfonylfluoride, and 0.1% Triton X-100. Two-hundred µg protein extract in a total volume of 100 µl HB was loaded on 50 µl 50% (v/v) FL66-Sepharose or control Sepharose beads, and incubated on a rotating wheel for 2 h at 4° C. The unbound proteins were collected for later analysis. The beads-bound fractions were washed 3 times with HB. Beads were resuspended in 30 µl SDS-loading buffer and boiled. The supernatants (beads bound fractions) and 10 µl of the unbound fractions were separated on a 12.5% SDS-PAGE gel and electroblotted on nitrocellulose membrane (Hybond-C^+; Amersham). […]

In experiment [5] the target is T2, GAL4 DNA-binding domain-CDC2aAt fusion …. Put plainly: yeast two-hybrid control, growth without histidine.
Excerpt: as §1

B1: GAL4 activation domain-LDV66 fusion (pGADLDV66) (other, not shown: large carriers)
chain: VNSVPVAQSSNEDECFDNFVSVQVSCGENSLGFESRHSTRESTPCNFVEDMEIMVTPGSSTRSMCRATKEYTREQDNVIPTTSEMEEFFAYAEQQQQRLFMEKYNFDIVNDIPLSGRYEWVQVKP
notes: FL66 = ICK3
Take B1: the binding result in experiment [1] and in experiment [2] was “no binding” throughout.

B2: GAL4 activation domain-FL39 fusion (pGADFL39) (other, not shown: large carriers)
chain: MAAVRRRERDVVEENGVTTTTVKRRKMEEEVDLVESRIILSPCVQATNRGGIVARNSAGASETSVVIVRRRDSPPVEEQCQIEEEDSSVSCCSTSEEKSKRRIEFVDLEENNGDDRETETSWIYDDLNKSEESMNMDSSSVAVEDVESRRRLRKSLHETVKEAELEDFFQVAEKDLRNKLLECSMKYNFDFEKDEPLGGGRYEWVKLNP
notes: also called ICK2; CKI2
For the molecule B2, the figures for the binding result in experiment [2] and in experiment [3] were “no binding” and “binds”, respectively.

B3: GAL4 activation domain-LDV39 fusion (pGADLDV39) (other, not shown: large carriers)
chain: RRDSPPVEEQCQIEEEDSSVSCCSTSEEKSKRRIEFVDLEENNGDDRETETSWIYDDLNKSEESMNMDSSSVAVEDVESRRRLRKSLHETVKEAELEDFFQVAEKDLRNKLLECSMKYNFDFEKDEPLGGGRYEWVKLNP
notes: FL39 = ICK2 = CKI2
As for B3, the binding result in experiment [1] and in experiment [2] was “no binding” throughout.

B4: Purified recombinant FL66 protein (E. coli, FL66pET21d), starting at methionine 11 (other)
chain: MEVSKATAPSPGVRTRAAKTLALKRLNSSAADSALPNDSSCYLQLRSRRLEKPSSLIEPKQPPRVHRSGIKESGSRSRVDSVNSVPVAQSSNEDECFDNFVSVQVSCGENSLGFESRHSTRESTPCNFVEDMEIMVTPGSSTRSMCRATKEYTREQDNVIPTTSEMEEFFAYAEQQQQRLFMEKYNFDIVNDIPLSGRYEWVQVKP
notes: also called FL66-Sepharose
Turning to B4, the binding result in experiment [4] is given as “no binding”.

B5: GAL4 activation domain-FL66 fusion (pGADFL66), FL66 starting at methionine 11 (other, not shown: large carriers)
chain: B4 chain
notes: the FL66 clone may not be full length; also called ICK3
As to B5, the binding result in experiment [2] is “no binding”.

B6: GAL4 activation domain-LDV159 fusion (pGADLDV159) (other, Arabidopsis thaliana, UniProt Q67Y93 1-191, looked up, not shown: large carriers)
chain: MVRKYRKAKGIVEAGVSSTYMQLRSRRIVYVRSEKSSSVSVVGDNGVSSSCSGSNEYKKKELIHLEEEDKDGDTETSTYRRGTKRKLFENLREEEKEELSKSMENYSSEFESAVKESLDCCCSGRKTMEETVTAEEEEKAKLMTEMPTESEIEDFFVEAEKQLKEKFKKKYNFDFEKEKPLEGRYEWVKLE
notes: also called ICK1
With B6, the binding result in experiment [2] is given as “no binding”.

B7: GAL4 activation domain alone (pGAD424) (other, UniProt P04386 768-881, looked up)
chain: ANFNQSGNIADSSLSFTFTNSSNGPNLITTQTNSQALSQPIASSNVHDNFMNNEITASKIDDGNNSKPLSPGWTDQTAYNAFGITTGMFNTTTMDDVYNYLFDDEDTPPNPKKE
notes: Negative control prey in the two-hybrid retransformation
Turning to B7, the binding result in experiment [5] is recorded as “no binding”.
